The text below walks through data of PMC12002259, “Monomers and short oligomers of human RAD52 promote single-strand annealing” (Proceedings of the National Academy of Sciences of the …, 2023).

Data set [1] concerns the molecule itself. Put plainly: mass photometry; single 60-s reading at 200 nM protein, label-free, adsorbed on glass; Buffer 1 (20 mM Tris-HCl, 50 mM NaCl, pH 7.5); stock diluted to 1 uM, then to the final concentration, measured directly after dilution; size of the oligomers.
Data set [2] deals with the molecule itself. Put plainly: mass photometry; concentration series 10 to 200 nM protein, cumulative histograms from four measurements; Buffer 1 (20 mM Tris-HCl, 50 mM NaCl, pH 7.5); linear fits and a global fit of noncooperative (isodesmic) assembly coupled with preferential cyclization; Kd is that of a monomer associating with an oligomer of n subunits.
Data set [3] concerns the target T1, RAD52 full length (human, UniProt P43351 1-418).
T1 sequence: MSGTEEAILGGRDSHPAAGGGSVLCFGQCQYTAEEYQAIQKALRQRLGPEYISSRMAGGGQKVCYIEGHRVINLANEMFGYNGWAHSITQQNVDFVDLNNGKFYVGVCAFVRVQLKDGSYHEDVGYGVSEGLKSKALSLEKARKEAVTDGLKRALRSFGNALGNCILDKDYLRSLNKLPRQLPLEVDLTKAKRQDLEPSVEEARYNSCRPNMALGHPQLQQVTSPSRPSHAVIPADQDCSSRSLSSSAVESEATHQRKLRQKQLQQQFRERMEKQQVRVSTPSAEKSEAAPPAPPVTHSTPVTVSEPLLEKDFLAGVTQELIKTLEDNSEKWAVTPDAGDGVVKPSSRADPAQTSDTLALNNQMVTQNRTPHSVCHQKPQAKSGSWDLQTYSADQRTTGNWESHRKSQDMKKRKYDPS
Put plainly: EMSA; 37 C; Hill 3.3 ± 0.2; EMSA: 25 mM Tris-acetate, 2 mM Mg(OAc)2, 1 mM DTT, pH 7.5, 10 nM ssDNA, 25 C 10 min or 37 C 5 min; mass photometry: 20 mM Tris-HCl, 50 mM NaCl, pH 7.5. The settings on record: protein: recombinant; tags: His-tag (pET-15b).

Data set [4] concerns the target T2, RAD52(209) (human, UniProt P43351 1-209).
T2 sequence: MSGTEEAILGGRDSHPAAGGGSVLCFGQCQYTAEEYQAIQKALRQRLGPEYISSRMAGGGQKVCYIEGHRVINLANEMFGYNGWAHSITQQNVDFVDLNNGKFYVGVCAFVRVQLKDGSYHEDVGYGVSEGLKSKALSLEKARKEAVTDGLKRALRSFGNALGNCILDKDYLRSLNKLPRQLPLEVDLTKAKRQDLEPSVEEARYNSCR
Put plainly: EMSA; 37 C; Hill 4.1 ± 0.4; EMSA: 25 mM Tris-acetate, 2 mM Mg(OAc)2, 1 mM DTT, pH 7.5, 10 nM ssDNA, 25 C 10 min or 37 C 5 min; mass photometry: 20 mM Tris-HCl, 50 mM NaCl, pH 7.5. As to conditions: protein: recombinant; tags: His-tag (pET-15b); chain copies: 11. Background: Mobility shift assays separate free from complexed probe on a gel.

In data set [5] the target is T2, RAD52(209). Nature of the data set: EMSA; 25 C; Hill 1.6 ± 0.3; EMSA: 25 mM Tris-acetate, 2 mM Mg(OAc)2, 1 mM DTT, pH 7.5, 10 nM ssDNA, 25 C 10 min or 37 C 5 min; mass photometry: 20 mM Tris-HCl, 50 mM NaCl, pH 7.5. As to conditions: protein: recombinant; tags: His-tag (pET-15b); chain copies: 11.
The target of data set [6] is T1, RAD52 full length. Nature of the data set: EMSA; 25 C; Hill fixed at 1; EMSA: 25 mM Tris-acetate, 2 mM Mg(OAc)2, 1 mM DTT, pH 7.5, 10 nM ssDNA, 25 C 10 min or 37 C 5 min; mass photometry: 20 mM Tris-HCl, 50 mM NaCl, pH 7.5. The settings on record: protein: recombinant; tags: His-tag (pET-15b).
The target in data set [7] is T2, RAD52(209). Put plainly: mass photometry; 100 nM protein, 10 nM DNA; ring shift 32 ± 2 kDa; EMSA: 25 mM Tris-acetate, 2 mM Mg(OAc)2, 1 mM DTT, pH 7.5, 10 nM ssDNA, 25 C 10 min or 37 C 5 min; mass photometry: 20 mM Tris-HCl, 50 mM NaCl, pH 7.5. As to conditions: protein: recombinant; tags: His-tag (pET-15b); chain copies: 11.
Data set [8] concerns the target T1, RAD52 full length. Put plainly: EMSA; 25 C; Hill 1.4 ± 0.2; EMSA: 25 mM Tris-acetate, 2 mM Mg(OAc)2, 1 mM DTT, pH 7.5, 10 nM ssDNA, 25 C 10 min or 37 C 5 min; mass photometry: 20 mM Tris-HCl, 50 mM NaCl, pH 7.5. The settings on record: protein: recombinant; tags: His-tag (pET-15b).
Data set [9] addresses T2, RAD52(209). Put plainly: EMSA; 25 C; Hill 1.5 ± 0.2; EMSA: 25 mM Tris-acetate, 2 mM Mg(OAc)2, 1 mM DTT, pH 7.5, 10 nM ssDNA, 25 C 10 min or 37 C 5 min; mass photometry: 20 mM Tris-HCl, 50 mM NaCl, pH 7.5. The settings on record: protein: recombinant; tags: His-tag (pET-15b); chain copies: 11.
Data set [10] has as its target T1, RAD52 full length. Nature of the data set: EMSA; 37 C; Hill 2.7 ± 0.2; EMSA: 25 mM Tris-acetate, 2 mM Mg(OAc)2, 1 mM DTT, pH 7.5, 10 nM ssDNA, 25 C 10 min or 37 C 5 min; mass photometry: 20 mM Tris-HCl, 50 mM NaCl, pH 7.5. The settings on record: protein: recombinant; tags: His-tag (pET-15b).
Data set [11] concerns the target T2, RAD52(209). Put plainly: EMSA; 37 C; Hill 3.1 ± 0.5; EMSA: 25 mM Tris-acetate, 2 mM Mg(OAc)2, 1 mM DTT, pH 7.5, 10 nM ssDNA, 25 C 10 min or 37 C 5 min; mass photometry: 20 mM Tris-HCl, 50 mM NaCl, pH 7.5. The settings on record: protein: recombinant; tags: His-tag (pET-15b); chain copies: 11.
Data set [12] deals with T2, RAD52(209). Put plainly: mass photometry; 100 nM protein, 10 nM DNA; ring shift 40 ± 4 kDa; EMSA: 25 mM Tris-acetate, 2 mM Mg(OAc)2, 1 mM DTT, pH 7.5, 10 nM ssDNA, 25 C 10 min or 37 C 5 min; mass photometry: 20 mM Tris-HCl, 50 mM NaCl, pH 7.5. The settings on record: protein: recombinant; tags: His-tag (pET-15b); chain copies: 11.

“And” between values parts separate entries of the source, which are not always exact repeats. Equal values may be shown once.

B1: full-length human RAD52 (natural protein, UniProt P43351 1-418, looked up)
chain: MSGTEEAILGGRDSHPAAGGGSVLCFGQCQYTAEEYQAIQKALRQRLGPEYISSRMAGGGQKVCYIEGHRVINLANEMFGYNGWAHSITQQNVDFVDLNNGKFYVGVCAFVRVQLKDGSYHEDVGYGVSEGLKSKALSLEKARKEAVTDGLKRALRSFGNALGNCILDKDYLRSLNKLPRQLPLEVDLTKAKRQDLEPSVEEARYNSCRPNMALGHPQLQQVTSPSRPSHAVIPADQDCSSRSLSSSAVESEATHQRKLRQKQLQQQFRERMEKQQVRVSTPSAEKSEAAPPAPPVTHSTPVTVSEPLLEKDFLAGVTQELIKTLEDNSEKWAVTPDAGDGVVKPSSRADPAQTSDTLALNNQMVTQNRTPHSVCHQKPQAKSGSWDLQTYSADQRTTGNWESHRKSQDMKKRKYDPS
notes: RAD52, human, full length; Expressed from pET-15b (plasmid a gift of W. Kagawa); No tag cleavage is described; The entry describes the protomer; the oligomer size varies with concentration; source: E. coli BL21(DE3) with pRARE, purified (Ni-NTA, size-exclusion chromatography)
The term stoichiometry N denotes the number of molecules, sites or subunits per partner or assembly. For orientation: Kd means the free concentration of one partner at which half of the binding sites on the other are occupied at equilibrium, for simple one-to-one binding. As for B1, in [1], the “stoichiometry N” value is 8 protomers to 12 protomers (2×) and 10. For the same molecule, in data set [2], the Kd came out at 14 ± 2 nM; the “stoichiometry N” value is 10.6 protomers per ring and 7 protomers to 13 protomers (2×).

B2: 60 nt (ssDNA)
DNA: TCCTTTTGATAAGAGGTCATTTTTGCGGATGGCTTAGAGCTTAATTGCTTTTTTTTTTTT
With B2, the Kd in data set [3] came out at 112.4 ± 0.1 nM; in data set [4], 127 ± 10 nM.

B3: RAD52(209), human RAD52 truncated after amino acid 209 (domain or fragment, UniProt P43351 1-209, looked up)
chain: MSGTEEAILGGRDSHPAAGGGSVLCFGQCQYTAEEYQAIQKALRQRLGPEYISSRMAGGGQKVCYIEGHRVINLANEMFGYNGWAHSITQQNVDFVDLNNGKFYVGVCAFVRVQLKDGSYHEDVGYGVSEGLKSKALSLEKARKEAVTDGLKRALRSFGNALGNCILDKDYLRSLNKLPRQLPLEVDLTKAKRQDLEPSVEEARYNSCR
notes: Expressed from pET-15b (plasmid a gift of S. C. West); No tag cleavage is described; The entry describes the protomer; also called C-terminally truncated RAD52; source: E. coli BL21(DE3) with pRARE, purified (Ni-NTA, size-exclusion chromatography)
On to B3, for which the “stoichiometry N” value in data set [1] was 11.

B4: 70 nt (ssDNA)
DNA: TTTAATAATTTACTTTATTTTCTATGTCTATTCATTTACTTATTGTGTATTATCCTTATACTTACTTAC
For the molecule B4, the Kd was 109 ± 23 nM in data set [5] and 53 ± 8 nM in data set [6].

B5: 48 nt unlabeled (ssDNA)
DNA: GCAATTAAGCTCTAAGCCATCCGCAAAAATGACCTCTTATCAAAAGGA
On to B5, for which, in data set [7], the binding result is “binds”.

B6: 32 nt (ssDNA)
DNA: GCTCTAAGCCATCCGCAAAAATGACCTCTTAT
For B6, the Kd in data set [8] came out at 115 ± 22 nM; in data set [9], 169 ± 24 nM; in data set [10] it was 135 ± 4 nM; in data set [11], 246 ± 33 nM.

B7: 83 nt (ssDNA)
DNA: TTTATATAATTTACTTTATTTTCTATGTCTATTCATTTACTTATTGTGTATTATCCTTATACTTACTTACTTTATGTTTATTT
In the case of B7, in data set [12], the binding result was “binds”.
